Where a chain is given by its changes, count along the chain named. Names and notes keep the numbering of the source. “Also recorded” adds a separate entry of the source.
B1: SPC: P. alba MEA G491S L494P T536C (+) TEV; pDW112, SEQ ID NO: 91 (protein)
chain: MEARRSANYEPNSWDYDYLLSSDTDESIEVYKDKAKKLEAEVRREINNEKAEFLTLLELIDNVQRLGLGYRFESDIRGALDRFVSSGGFDAVTKTSLHGTALSFRLLRQHGFEVSQEAFSGFKDQNGNFLENLKEDIKAILSLYEASFLALEGENILDEAKVFAISHLKELSEEKIGKELAEQVNHALELPLHRRTQRLEAVWSIEAYRKKEDANQVLLELAILDYNMIQSVYQRDLRETSRWWRRVGLATKLHFARDRLIESFYWAVGVAFEPQYSDCRNSVAKMFSFVTIIDDIYDVYGTLDELELFTDAVERWDVNAINDLPDYMKLCFLALYNTINEIAYDNLKDKGENILPYLTKAWADLCNAFLQEAKWLYNKSTPTFDDYFGNAWKSSSGPLQLVFAYFAVVQNIKKEEIENLQKYHDTISRPSHIFRLCNDLASASAEIARGETANSVSCYMRTKGISEELATESVMNLIDETWKKMNKEKLSGSPFAKPFVETAINLARQSHCTYHNGDAHTSPDELTRKRVLSVICEPILPFERENLYFQGLEHHHHHH
modifications: TEV site
B2: wild type IspS: P. alba MEA (+) TEV isoprene synthase, MD09-163, strain MD09-167, SEQ ID NO: 63 (protein)
chain: B1 chain with S491G, P494L, C536T
modifications: TEV site

Columns and labels:
[1] = kcat, KM and Ki determination, rate vs [DMAPP], fit to uncompetitive substrate inhibition; format: biochemical; conditions: for Km / kcat / Ki: average of three trials ± one standard deviation; for kcat: in s^-1 (unit assumed); for Ki: uncompetitive substrate inhibition by DMAPP, read-out: KiDMAPP
Protocol: 10 uL of purified enzyme was incubated with DMAPP at concentrations ranging from 1.25 to 20 mM DMAPP in a buffer containing 50 mM Tris, 50 mM MgCl2 and 50 mM NaCl (pH=8) to a final volume of 100 uL for 15 min. at 30 C in gas tight 2 mL vials. Reactions were terminated with the addition of 100 uL of 250 mM EDTA, pH=8. Samples were analyzed by GC-MS to determine the concentration of isoprene in the headspace of the vials. Data were analyzed using Kaleidagraph and fit to following equation for uncompetitive substrate inhibition: rate/E=kcat*S/(KM+S*(1+S/Ki)). All kinetic assays were performed in triplicate.
Protein concentration was determined by measuring the absorbance of each protein solution at 280 nm on a Helwlett Pachard 8453 UV-Vis spectrophotometer and converting the absorbance to protein concentration using the extinction coefficient as determined on the Expasy website (Gasteiger E., Hoogland C., Gattiker A., Duvaud S., Wilkins M. R., Appel R. D., Bairoch A.; Protein Identification and Analysis Tools on the ExPASy Server; (In) John M. Walker (ed): The Proteomics Protocols Handbook, Humana Press (2005). pp. 571-607). The protein concentrations of isoprene synthase variants assayed for KM and kcat determination were verified by comparative gel electrophoresis of a dilution series of each protein (FIG. 61).

[2] = Specific activity measurement of purified isoprene synthase variants (4 mM DMAPP, 30 C, GC-MS headspace); format: biochemical; conditions: for S.A. / Variant S.A./WT S.A.: 50 mM NaCl, 50 mM Tris pH = 8, 30° C.; for Variant S.A./WT S.A.: ratio to WT
How it was run: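 Ni-affinity-purified, buffer-exchanged enzyme incubated with 4 mM DMAPP and 50 mM MgCl2 in 50 mM Tris, 50 mM NaCl, pH 8, for 15 min at 30 C in sealed vials; stopped with EDTA. Headspace isoprene quantified by GC-MS, in triplicate; protein concentration from A280 with calculated extinction coefficient.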

[3] = Differential scanning calorimetry, thermal midpoint (Tm); format: physicochemical
Protocol: Excessive heat capacity curves were measured using an ultrasensitive scanning high-throughput microcalorimeter, VP-Cap DSC (MicroCal, Inc., Northampton, Mass.). The standard procedure for Differential Scanning calorimetry (DSC) measurements and the theory of the technique is previously published (Freire, E. (1995) Differential Scanning calorimetry Methods. Mol. Biol. 41, 191-218). Approximately 500 μL of 0.5 mg/ml IspS (from strain MD09-167) or variant IspS-L494P (from strain DW399) and IspS-T536F (from strain DW363) (in the absence or presence of 5 mM sodium pyrophosphate) were scanned over a 30-100° C. temperature range. The same sample was then re-scanned to check the reversibility of the process. For IspS the thermal unfolding process was irreversible. The buffer used was 50 mM HEPES, 5 mM MgCl2, pH 7.4, with and without 5 mM sodium pyrophosphate. Sodium pyrophosphate was included for its ability to function as a substrate analog. A 200° C./hr scan rate was used to minimize any artifacts that may result from aggregation. The thermal midpoint (Tm) of the DSC curves was used as an indicator of the thermal stability. The thermal melting curves and the melting points for the wild type IspS and variants are shown in FIG. 56 (buffer only) and 57 (with 5 mM sodium pyrophosphate).

Row | Molecule | KM compared to WT isoprene synthase, in words ([1]; 1.25 to 20 mM DMAPP, 30 C) | rate profile vs [DMAPP] ([1]; 1.25 to 20 mM DMAPP, 30 C) | Km ([1]; 1.25 to 20 mM DMAPP, 30 C) | kcat ([1]; 1.25 to 20 mM DMAPP, 30 C) | Ki [1] | S.A. [2] | Variant S.A./WT S.A. [2] | specific activity compared to WT isoprene synthase, in words ([2]; 30 C, purified enzyme) | thermal melting point (Tm) ([3]; buffer alone (50 mM HEPES, 5 mM MgCl2, pH 7.4)) | thermal melting point (Tm) ([3]; in the presence of 5 mM sodium pyrophosphate) | reversibility of the thermal unfolding process ([3]; re-scan of the same sample)
1 | B1 | less than the KM of the WT | uncompetitive substrate inhibition by DMAPP | 3.5 ± 0.8 mM | 1.5 ± 0.4 | 25 ± 21 mM | 630 ± 40 nmol/mg/min | 1.3 | increased specific activity; also recorded: greater than the WT isoprene synthase but less than the β isoprene synthase variant | – | – | –
2 | B2 | – | uncompetitive substrate inhibition by DMAPP | 7 ± 4 mM | 1.5 ± 0.6 | 16 ± 9 mM | 480 ± 20 nmol/mg/min | 1.0 | – | 58.3 °C | 54.7 °C | irreversible

Reference: patent US9175313B2, “Three-dimensional structure of isoprene synthase and its use thereof for generating variants” (Danisco US Inc., priority 2009, dated 2015)
